Laboratory results taken from patent US9890409B2, “Composition for astringin product” (INDUSTRY FOUNDATION OF CHONNAM NATIONAL UNIVERSITY, priority 2015, dated 2018).

Experiment: Oxidation of polydatin to astringin (3′-hydroxylation), steady-state kinetics by HPLC
Type: biochemical
Conditions: polydatin as substrate, NADPH-generating system, 37° C., 30 minutes, 100 mM potassium phosphate buffer pH 7.4
Protocol: P450 BM3 50 pmol and […] of polydatin as a substrate were added to 0.25 ml of 100 mM potassium phosphate buffer (pH 7.4) to perform a typical steady-state reaction. In order to start the reaction, the NADPH-generating system (10 mM glucose 6-phosphate, 0.5 mM NADP^+ and 1 IU yeast glucose 6-phosphate-dihydrogenase per 1 ml of final concentration) was added. 20 mM polydatin solution was prepared with DMSO, and diluted with an enzyme reaction solution, thereby preparing a reaction mixture so that the final organic solvent has a concentration of 1%/(v/v) or less. The solution was reacted at 37° C. for 30 minutes, and the reaction was terminated with ethyl-acetate which is cooled by using ice with twice amount.
The reaction mixture was centrifuged, the supernatant was […]. Then, the solvent was evaporated under a nitrogen gas, and analyzed by HPLC. A sample (30 μl) was injected into Gemini C18 column (4.6 mm×150 mm, 5 μm, Phenomenex, Torrance, Calif.). […] The mobile phase flowed at a rate of 1 ml/minute and an eluent was measured by 320 nm of UV.
In order to examine whether polydatin is oxidized by CYP102A1(P450 BM3), oxidativity of polydatin was measured at a substrate concentration fixed to be 1000 μM in the P450 wild-type CYP102A1, the CYP102A1 mutant, the CYP102A1 chimera, and the mutant of CYP102A1 chimera. […]

B1: M16V3: chimera protein: heme domain of CYP102A1 Mutant#16 (R47L/F81I/F87V/E143G/L188Q/E267V) fused with reductase domain of natural variant CYP102A1.3 (protein)
chain: TIKEMPQPKTFGELKNLPLLNTDKPVQALMKIADELGEIFKFEAPGLVTRYLSSQRLIKEACDESRFDKNLSQALKFVRDFAGDGIVTSWTHEKNWKKAHNILLPSFSQQAMKGYHAMMVDIAVQLVQKWERLNADEHIEVPGDMTRLTLDTIGLCGFNYRFNSFYRDQPHPFITSMVRALDEAMNKQQRANPDDPAYDENKRQFQEDIKVMNDLVDKIIADRKASGEQSDDLLTHMLNGKDPETGEPLDDENIRYQIITFLIAGHVTTSGLLSFALYFLVKNPHVLQKAAEEAARVLVDPVPSYKQVKQLKYVGMVLNEALRLWPTAPAFSLYAKEDTVLGGEYPLEKGDELMVLIPQLHRDKTIWGDDVEEFRPERFENPSAIPQHAFKPFGNGQRACIGQQFALHEATLVLGMMLKHFDFEDHTNYELDIKETLTLKPEGFVVKAKSKKIPLGGIPSPSTEQSAKKVRKKVENAHNTPLLVLYGSNMGTAEGTARDLADIAMSKGFAPQVATLDSHAGNLPREGAVLIVTASYNGHPPDNAKQFVDWLDQASADDVKGVRYSVFGCGDKNWATTYQKVPAFIDETLAAKGAENIADRGEADASDDFEGTYEEWREHMWSDVAAYFNLDIENSEDNKSTLSLQFVDSAADMPLAKMHGAFSANVVASKELQQLGSERSTRHLEIALPKEASYQEGDHLGVIPRNYEGIVNRVTARFGLDASQQIRLEAEEEKLAHLPLGKTVSVEELLQYVELQDPVTRTQLRAMAAKTVCPPHKVELEALLEKQAYKEQVLAKRLTMLELLEKYPACEMEFSEFIALLPSISPRYYSISSSPHVDEKQASITVSVVSGEAWSGYGEYKGIASNYLANLQEGDTITCFVSTPQSGFTLPKDSETPLIMVGPGTGVAPFRGFVQARKQLKEQGQSLGEAHLYFGCRSPHEDYLYQEELENAQNEGIITLHTAFSRVPNQPKTYVQHVMERDGKKLIELLDQGAHFYICGDGSQMAPDVEATLMKSYADVYEVSEADARLWLQQLEEKGRYAKDVWAG
modifications: CYP102A1 chimeric protein M16V3 aa seq
kcat, astringin formation: 0.00417 ± 0.0005 s⁻¹
Km (read-out: Km, astringin formation): 390 ± 111 µM
